In IntAct's records for PubMed 28587924:

B1: Argininosuccinate synthase (Homo sapiens), P00966 (parent)
chain: MSSKGSVVLAYSGGLDTSCILVWLKEQGYDVIAYLANIGQKEDFEEARKKALKLGAKKVFIEDVSREFVEEFIWPAIQSSALYEDRYLLGTSLARPCIARKQVEIAQREGAKYVSHGATGKGNDQVRFELSCYSLAPQIKVIAPWRMPEFYNRFKGRNDLMEYAKQHGIPIPVTPKNPWSMDENLMHISYEAGILENPKNQAPPGLYTKTQDPAKAPNTPDILEIEFKKGVPVKVTNVKDGTTHQTSLELFMYLNEVAGKHGVGRIDIVENRFIGMKSRGIYETPAGTILYHAHLDIEAFTMDREVRKIKQGLGLKFAELVYTGFWHSPECEFVRHCIAKSQERVEGKVQVSVLKGQVYILGRESPLSLYNEELVSMNVQGDYEPTDATGFININSLRLKEYHRLQSKVTAK
partner: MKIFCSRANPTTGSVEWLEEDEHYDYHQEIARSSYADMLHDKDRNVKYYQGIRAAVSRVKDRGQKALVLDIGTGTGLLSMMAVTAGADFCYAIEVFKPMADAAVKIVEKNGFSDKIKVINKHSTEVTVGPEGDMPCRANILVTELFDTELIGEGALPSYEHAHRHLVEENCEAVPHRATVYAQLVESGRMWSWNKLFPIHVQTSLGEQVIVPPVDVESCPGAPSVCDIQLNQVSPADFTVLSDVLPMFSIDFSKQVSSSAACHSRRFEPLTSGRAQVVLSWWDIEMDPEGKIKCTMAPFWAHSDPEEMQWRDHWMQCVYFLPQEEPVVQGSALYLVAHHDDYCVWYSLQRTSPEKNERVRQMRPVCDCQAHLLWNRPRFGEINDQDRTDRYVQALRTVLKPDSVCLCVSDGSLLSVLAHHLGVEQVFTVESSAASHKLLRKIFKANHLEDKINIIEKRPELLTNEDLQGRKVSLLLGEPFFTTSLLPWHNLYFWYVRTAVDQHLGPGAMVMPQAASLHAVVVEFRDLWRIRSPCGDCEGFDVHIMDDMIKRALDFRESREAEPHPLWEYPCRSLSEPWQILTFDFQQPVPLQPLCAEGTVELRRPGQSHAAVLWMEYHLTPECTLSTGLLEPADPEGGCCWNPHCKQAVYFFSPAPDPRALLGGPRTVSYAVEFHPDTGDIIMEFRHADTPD

Legend:
[1] = variants of: B1; conditions: with anm7_human PRMT7, Q9NVM4
[2] = variants of: B1; conditions: with anm7_human PRMT7, Q9NVM4; remark: listed apart in the source

| effect of a mutation on the interaction [1] | effect of a mutation on the interaction [2] | Variant |
| --- | --- | --- |
| disrupting interaction strength | decreasing interaction strength | R363L |
| disrupting interaction strength | decreasing interaction strength | D296G |
| decreasing interaction strength |  | I360A |
